Data published in PMC4120848.
Read-outs that look alike come from different tables or passages of the source.

Assays:
Assay in all cases: mMAPS
[1] = target: endogenous EGFR (HeLa cells) (human (endogenous in HeLa)) (UniProt P00533)
[2] = target: endogenous EGFR phosphorylated at Tyr1068 (HeLa cells) (human (endogenous in HeLa)) (UniProt P00533)
[3] = target: endogenous EGFR (HeLa cells) (human (endogenous in HeLa)) (UniProt P00533); remark: listed apart in the source
[4] = target: endogenous EGFR phosphorylated at Tyr1068 (HeLa cells) (human (endogenous in HeLa)) (UniProt P00533); remark: listed apart in the source

percent of total detected EGFR events that are EGF-EGFR [1]: 4.35% | percent of total detected EGFR events that are EGF-EGFR-pTyr1068 [2]: 2.64% | percent of total detected EGFR events that are EGF-EGFR [3]: 3.3% | percent of total detected EGFR events that are EGF-EGFR-pTyr1068 [4]: 1.27%
Substance: A647-conjugated EGF (ligand)
